target: T1, Gal-α-(1→3)-Gal target of the SPR experiment (ligand on the chip not stated); assay: SPR (BIAcore), Kd from kon and koff; ligand on the chip not stated
T1 construct: also called target glycan
Experimental: Dissociation constants (Kd) for the scFvs were calculated from the measured association (kon) and dissociation (koff) rate constants by using surface plasmon resonance (SPR) BIAcore instrumentation and software (GE).

Row | Binder | Kd [nM]
1 | scFv-A11 (scFv, Chicken scFv (VL-linker-VH), expressed soluble in E. coli; It recognises the Gal-α-(1→3)-Gal glycan) scFv: QAALTQPSSVSANPGETVKITCSGGGSYGGSYYYGWYQQKSPGSAPVTVIYSNDNRPSDIPSRFSGSTSGSTSTLTITGVQVDDEAVYYCGTYDSSYVGIFGAGTALTVLGQSSRSSGGGSSGGGGSAVTLDESGGGLQTPGGGLSLVCKASGFTFSSYSMQWVRQTPGKGLEFVAGIGYSDSYTYFGPAVKGRATISRDNGQNTVRLQLNNLRAEDTATYYCARSADTIYGCTHPWCSADNIDAWGHGTEVIVSSTSGQAGQ | 8.04
2 | scFv-G12 (scFv, Chicken scFv (VL-linker-VH), expressed soluble in E. coli; It recognises the Gal-α-(1→3)-Gal glycan) scFv: QAALTQPSSVSANPGETVKITCSGGSYHYGWYQQKSPGSAPVTVIYSNNQRPSGIPSRFSGSTSDSTGTLTITGVQADDEAVYFCGSYDSSNTYAGIFGAGTTLTVLGQSSRSSSGGGSSGGGGSAVTLDESGGGFQTPGGALSLVCKASGFTFSSYSMQWVRQAPGKGLEFVAGIGNSDRYTYFGPAVKGRATISRDNGQSTLRLQLNNLRAEDTATYFCARSGDSGNGCTHPWCSADNINAWGHGTEVIVSSTSGQAGQ | 18
3 | scFv-A4 (scFv, Chicken scFv (VL-linker-VH) from a pComb3 phage library, expressed soluble in E. coli; It recognises the Gal-α-(1→3)-Gal glycan, not a protein surface) scFv: QAALTQPSSVSTNPGGTVKITCSGGNGNYGWYQQKSPGSAPVTVIYSNNKRPSDIPSRFSGSKSGSTATLTITGVQVDDEAVYFCGAYDNTYVGVFGAGTTLTVLGQSSRSSSGGGSSGGGGSAVTLDESGGGLQTPGGGLSLVCKASGFTFSSYSMQWVRQTPGKGLEFVAGIGYSDSYTYFGPAVKGRATISRDNGQNTVRLQLNNLRAEDTATYYCARSADTIYGCTHPWCSADNIDAWGHGTEVIVSSTSGQAGQ | 57.3

Reference: US20160003839A1 (NATIONAL UNIVERSITY OF IRELAND GALWAY, published 2016)
